Patent US20070134256A1 (US Dept. of Health and Human Services, published 2007)
Like-named read-outs stand apart in the source and are kept apart here.

How the values were obtained:
[1] = molecular target: T1, dengue type 4 virus (DENV-4), strain 814669, virions (dengue type 4 virus, UniProt P09866 280-774; P09866 114-279); assay: cell-based or functional assay
[2] = molecular target: T1, dengue type 4 virus (DENV-4), strain …; assay: ELISA, virion-coated plate, Fab from ~300 µg/ml
[3] = molecular target: T2, dengue type 3 virus (DENV-3), strain H87, virions (dengue type 3 virus, UniProt P27915 281-773; P27915 115-280); assay: ELISA, virion-coated plate, Fab from ~300 µg/ml
[4] = molecular target: T3, dengue type 1 virus (DENV-1), Western Pacific strain, virions (dengue type 1 virus, UniProt P17763 281-775; P17763 115-280); assay: ELISA, virion-coated plate, Fab from ~300 µg/ml
[5] = molecular target: T4, dengue type 2 virus (DENV-2), prototype New Guinea C strain, virions (dengue type 2 virus, UniProt P14340 281-775; P14340 115-280); assay: ELISA, virion-coated plate, Fab from ~300 µg/ml
[6] = molecular target: T2, dengue type 3 virus (DENV-3), strain …; assay: ELISA, virion-coated plate
[7] = molecular target: T3, dengue type 1 virus (DENV-1), Western …; assay: ELISA, virion-coated plate
[8] = molecular target: T4, dengue type 2 virus (DENV-2), prototype …; assay: ELISA, virion-coated plate
[9] = molecular target: DENV-4 prM glycoprotein (dengue type 4 virus, UniProt P09866 114-279); assay: radioimmunoprecipitation of prM expressed alone by recombinant vaccinia virus
[10] = molecular target: T2, dengue type 3 virus (DENV-3), strain …; assay: ELISA, virion-coated plate, Fab from ~140 µg/ml
[11] = molecular target: T3, dengue type 1 virus (DENV-1), Western …; assay: ELISA, virion-coated plate, Fab from ~140 µg/ml
[12] = molecular target: T4, dengue type 2 virus (DENV-2), prototype …; assay: ELISA, virion-coated plate, Fab from ~140 µg/ml
[13] = molecular target: T2, dengue type 3 virus (DENV-3), strain …; assay: ELISA, virion-coated plate; remark: listed apart in the source
[14] = molecular target: T3, dengue type 1 virus (DENV-1), Western …; assay: ELISA, virion-coated plate; remark: listed apart in the source
[15] = molecular target: T4, dengue type 2 virus (DENV-2), prototype …; assay: ELISA, virion-coated plate; remark: listed apart in the source
[16] = molecular target: T5, DENV-4 E glycoprotein (dengue type 4 virus, UniProt P09866 280-774); assay: radioimmunoprecipitation of E expressed alone by recombinant vaccinia virus
T5 construct: also called vDENV-4 E product

Binder	PRNT50 titer [1]	ELISA titer of Fab binding [2]	ELISA titer of Fab binding [3]	ELISA titer of Fab binding [4]	ELISA titer of Fab binding [5]	binding result [6]	binding result [7]	binding result [8]	binding result [9]	ELISA titer of Fab binding [10]	ELISA titer of Fab binding [11]	ELISA titer of Fab binding [12]	binding result [13]	binding result [14]	binding result [15]	binding result [16]
chimpanzee Fab 5D9 (Fab, V domains shown) VH: EVQLLESGPGLVKPSETLSLTCTVSGGSISDFYWSWLRQSPGKGLEWIGVAHSRVSAYYNPSLKSRVTISVDTSKNQLSLRLSAVTAADAALYYCARQGTGTTGVSEDPFDLWGQGTKVIVSL VL: ELTQSPSSLSASVGDRVTITCRASQGISNRLNWYQQKPGQGPKFLMYDASSLVSGVPSRFSGSGSGTDFTLTISSLQPEDFAVYYCQQFNSYPLTFGGGTKLEIKR	0.58 µg/mL	3.41 log10 of reciprocal dilution	< 1 log10 of reciprocal dilution	< 1 log10 of reciprocal dilution	< 1 log10 of reciprocal dilution	no binding	no binding	no binding	no binding							
chimpanzee Fab 5H2 (Fab, V domains shown) VH: EVQLLESGPGLVKPSETLSLTCTVSGGSISDFYWSWLRQSPGKGLEWIGYAHSRVSAYYNPSLKSRVTISVDTSKNQLSLRLSAVTAADTALYYCARQGTGTTGVSEDPFDLWGQGTKVIVSL VL: ELQMTQSPSSLSASVGDRVTITCRASQDISIRLNWYQQKPGKAPKLLIYDASTLESGVPSRFSGSGSGTDFTLTISSLQPEDFATYYCQQFNSYPLTFGGGTKVEIKR			< 1 log10 of reciprocal dilution	< 1 log10 of reciprocal dilution	< 1 log10 of reciprocal dilution					< 1 log10 of reciprocal dilution	< 1 log10 of reciprocal dilution	< 1 log10 of reciprocal dilution	no binding	no binding	no binding	binds
